Experimental findings from US6489293 are described below.

The target in the assay is T1, erythropoietin receptor on intact mouse spleen cells (mouse) (UniProt P14753).
T1 sequence (looked up): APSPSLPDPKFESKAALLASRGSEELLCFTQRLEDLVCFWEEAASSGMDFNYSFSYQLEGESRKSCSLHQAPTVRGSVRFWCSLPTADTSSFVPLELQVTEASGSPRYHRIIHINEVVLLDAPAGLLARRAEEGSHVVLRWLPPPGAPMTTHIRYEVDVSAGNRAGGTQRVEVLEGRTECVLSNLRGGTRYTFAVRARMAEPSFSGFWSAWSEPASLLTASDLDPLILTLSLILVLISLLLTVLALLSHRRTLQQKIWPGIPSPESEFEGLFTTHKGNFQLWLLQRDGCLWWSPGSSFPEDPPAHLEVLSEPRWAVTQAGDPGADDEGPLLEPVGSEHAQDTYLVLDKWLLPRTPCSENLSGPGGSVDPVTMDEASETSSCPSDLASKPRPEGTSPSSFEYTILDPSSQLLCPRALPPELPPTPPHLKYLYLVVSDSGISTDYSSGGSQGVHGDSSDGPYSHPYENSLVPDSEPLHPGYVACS
Description: cell-based or functional assay.
As to “erythropoietin mutant R103Q (from UniProt P01588 28-193) (ligand)”, the SPECIFIC ACTIVITY (Krystal bioassay units per microgram by RIA, percent of wildtype erythropoietin), first set of experiments is 0%; the SPECIFIC ACTIVITY (Krystal bioassay units per microgram by RIA, percent of wildtype erythropoietin), second set of experiments turned out to be 0%; the reduction in activity below wildtype human recombinant erythropoietin (Krystal bioassay) is 1000 fold.
As for “erythropoietin mutant R103A (from UniProt P01588 28-193) (ligand)”, the SPECIFIC ACTIVITY (Krystal bioassay units per microgram by RIA, percent of wildtype erythropoietin), first set of experiments was 0%; the SPECIFIC ACTIVITY (Krystal bioassay units per microgram by RIA, percent of wildtype erythropoietin), second set of experiments amounted to 0%; the reduction in activity below wildtype human recombinant erythropoietin (Krystal bioassay) stood at 1000 fold.
Regarding “erythropoietin mutant R103E (from UniProt P01588 28-193) (ligand)”, the SPECIFIC ACTIVITY (Krystal bioassay units per microgram by RIA, percent of wildtype erythropoietin), first set of experiments amounted to 0%; the SPECIFIC ACTIVITY (Krystal bioassay units per microgram by RIA, percent of wildtype erythropoietin), second set of experiments stood at 0%; the reduction in activity below wildtype human recombinant erythropoietin (Krystal bioassay) was found to be 1000 fold.
In turn, “erythropoietin mutant R103H (from UniProt P01588 28-193) (ligand)” came in with an SPECIFIC ACTIVITY (Krystal bioassay units per microgram by RIA, percent of wildtype erythropoietin), first set of experiments of 0%.
Consider “erythropoietin mutant R103N (from UniProt P01588 28-193) (ligand)”, for which the SPECIFIC ACTIVITY (Krystal bioassay units per microgram by RIA, percent of wildtype erythropoietin), first set of experiments was 0%; the SPECIFIC ACTIVITY (Krystal bioassay units per microgram by RIA, percent of wildtype erythropoietin), second set of experiments is 0%; the reduction in activity below wildtype human recombinant erythropoietin (Krystal bioassay) came out at 1000 fold.
In turn, “erythropoietin mutant R103K (from UniProt P01588 28-193) (ligand)” showed an SPECIFIC ACTIVITY (Krystal bioassay units per microgram by RIA, percent of wildtype erythropoietin), first set of experiments of 10.2% and an SPECIFIC ACTIVITY (Krystal bioassay units per microgram by RIA, percent of wildtype erythropoietin), second set of experiments of 25%.
Substance “erythropoietin mutant L108A (from UniProt P01588 28-193) (ligand)” registered an SPECIFIC ACTIVITY (Krystal bioassay units per microgram by RIA, percent of wildtype erythropoietin), first set of experiments of 36.9%.
“erythropoietin mutant R103L (from UniProt P01588 28-193) (ligand)”: the SPECIFIC ACTIVITY (Krystal bioassay units per microgram by RIA, percent of wildtype erythropoietin), first set of experiments is 0% and the SPECIFIC ACTIVITY (Krystal bioassay units per microgram by RIA, percent of wildtype erythropoietin), second set of experiments worked out at 0.4%.
For the substance “erythropoietin mutant R103D (from UniProt P01588 28-193) (ligand)”, the SPECIFIC ACTIVITY (Krystal bioassay units per microgram by RIA, percent of wildtype erythropoietin), first set of experiments worked out at 0%; the SPECIFIC ACTIVITY (Krystal bioassay units per microgram by RIA, percent of wildtype erythropoietin), second set of experiments stood at 0%; the reduction in activity below wildtype human recombinant erythropoietin (Krystal bioassay) was 1000 fold.
As to “erythropoietin mutant L102A (from UniProt P01588 28-193) (ligand)”, the SPECIFIC ACTIVITY (Krystal bioassay units per microgram by RIA, percent of wildtype erythropoietin), first set of experiments amounted to 93.3%.
